Data from patent US20090036380A1, “Composition And Method For Brain Tumor Therapy” (Yeda Research and Development Co., Ltd., priority 2006, published 2009).

How the values were obtained:
PC12 cells [1] = experiment: Effect of pathway proteins and inhibitors on Karet-induced cell death in PC12 cells; type: cell-based, rat; details: co-electroporated with Karet into PC12, 12 hours
PC12 cells [2] = experiment: Viability / death of PC12 cells after transfection with Karet constructs (Live/dead kit, FACS, cell counting, Hoechst); type: cell-based, rat; details: PC12-necdin stable cells electroporated with Karet
Experimental: FIG. 5a is a bar-graph of FACS data depicting 50 percent death of PC12 cells overexpressing Karet. Shown is a FACS analysis of PC12 viability 15 hours after transfection with Ha-Karet or control vector using Live/dead kit (Molecular probes), T-test=0.003.
FIG. 5b is a series of fluorescence photomicrographs depicting death of PC12 cells caused by Karet overexpression. Shown is a live/dead kit analysis of PC12 cells overexpressing Ha-Karet (left panels) versus control vector-transfected cells (right panels). Live cell are stained in green, dead cells are stained in red. Upper panels each show red fluorescence only (left picture) and green fluorescence only (right picture) pairs, and lower panels each show combined red and green fluorescence (left picture) and light microscopy images (right picture) pairs. […]
FIG. 5e is a histogram depicting that Karet expression induces cell death of TrkA expressing cells, which is increased by NGF treatment and is decreased by necdin. […] Cells were counted and result presented as percent of control.
PC12 cells were transfected with Ha Karet, PTB, non PTB and their combinations. Cells were analyzed by FACS 18 hours after transfection using the dead/live kit. […]
The lower panel is a histogram depicting that Karet-mediated cell death correlates well with expression levels of the Karet protein. […] Cells were counted and the results were determined as percent of control. […]

TrkA = experiment: Co-immunoprecipitation of HA-Karet constructs with TrkA; type: binding; details: co-transfected Hek or NNR5 cells, anti-HA IP
Experimental: FIG. 3c is a co-immunoprecipitation assay depicting co-immunoprecipitation of HA-Karet with TrkA in COS cells. Karet tagged with the HA epitope was immunoprecipitated with anti-HA antibody and the blot was incubated with anti-TrkA (RTA). In control experiments the HA-Karet was substituted with vector.
FIG. 3d is a co-immunoprecipitation assay depicting interaction of Karet and TrkA in NNR5 cells transfected with TrkA.
FIG. 3e is a co-immunoprecipitation assay depicting co-immunoprecipitation of HA-Karet with TricA in co-transfected NNR5 cells immunoprecipitated with anti-HA (Roche) and Western blot with the anti-TrkA antibody C14 (Santa Cruz).
FIGS. 4a-c are co-immunoprecipitation assay results depicting the influence of NGF treatment on TrkA-Karet interaction. FIG. 4a depicts that TrkA-Karet interaction occurred prior to NGF treatment and was enhanced after ligand stimulation for 10 minutes (10 m) or 2 hours (2 h). HA-Karet was electroporated into cell line PC12, and the cells were treated with 50 ng/ml NGF for the indicated time periods in order to activate p75 and TrkA. Karet tagged with the HA epitope was immunoprecipitated with anti-HA antibody, the precipitated proteins were separated electrophoretically, and gel blots were incubated with anti-TrkA antibody (RTA). […]

[3] = biological target: 27 amino acid residue juxtamembrane region of TrkA (Homo sapiens, UniProt P04629); experiment: In-vitro affinity co-precipitation with biotinylated TrkA juxtamembrane peptide; type: binding; details: streptavidin beads, recombinant protein, versus two control peptides
27 amino acid residue juxtamembrane region of TrkA, sequence (P04629 464-490 limits assumed): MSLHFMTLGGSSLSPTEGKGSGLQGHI
Excerpt: FIG. 8a is a co-immunoprecipitation analysis depicting interaction of Karet PTB domain with a juxtamembrane region of TrkA. Biotinylated synthetic peptide corresponding to the TrkA sequence in the juxtamembrane and control peptide were immobilized on streptavidin beads and then used to precipitate recombinant Karet protein. Precipitates were washed, eluted and bound Karet was visualized by Western blot with anti-His antibody.
FIG. 8b is an in-vitro affinity co-precipitation Western blot depicting that the isolated N-terminal PTB domain of Karet specifically interacts with a […] residue juxtamembrane region of TrkA having the sequence Biotinylated synthetic peptides corresponding to a 27 amino acid residue juxtamembrane region of TrkA having the sequence […] (SEQ ID NO: 10), and two control peptides were immobilized on streptavidin beads, and then used to precipitate recombinant PTB domain-containing Karet(1-228) truncation mutant. Precipitates were washed, eluted and bound Karet(1-228) was visualized by Western blot with Karet antibody.

B1: JIP1: a Jnk scaffold and inhibitor (protein, UniProt Q9UQF2 1-711, looked up)
C-Jun-amino-terminal …: MAERESGGLGGGAASPPAASPFLGLHIASPPNFRLTHDISLEEFEDEDLSEITDECGISLQCKDTLSLRPPRAGLLSAGGGGAGSRLQAEMLQMDLIDATGDTPGAEDDEEDDDEERAARRPGAGPPKAESGQEPASRGQGQSQGQSQGPGSGDTYRPKRPTTLNLFPQVPRSQDTLNNNSLGKKHSWQDRVSRSSSPLKTGEQTPPHEHICLSDELPPQSGPAPTTDRGTSTDSPCRRSTATQMAPPGGPPAAPPGGRGHSHRDRIHYQADVRLEATEEIYLTPVQRPPDAAEPTSAFLPPTESRMSVSSDPDPAAYPSTAGRPHPSISEEEEGFDCLSSPERAEPPGGGWRGSLGEPPPPPRASLSSDTSALSYDSVKYTLVVDEHAQLELVSLRPCFGDYSDESDSATVYDNCASVSSPYESAIGEEYEEAPRPQPPACLSEDSTPDEPDVHFSKKFLNVFMSGRSRSSSAESFGLFSCIINGEEQEQTHRAIFRFVPRHEDELELEVDDPLLVELQAEDYWYEAYNMRTGARGVFPAYYAIEVTKEPEHMAALAKNSDWVDQFRVKFLGSVQVPYHKGNDVLCAAMQKIATTRRLTVHFNPPSSCVLEISVRGVKIGVKADDSQEAKGNKCSHFFQLKNISFCGYHPKNNKYFGFITKHPADHRFACHVFVSEDSTKALAESVGRAFQQFYKQFVEYTCPTEDIYLE
- effect on cell death induction by Karet (PC12 cells [1]): did not affect cell death induction

B2: necdin: MAGE protein, interactor of the intracellular domain of p75 (protein)
chain: MSEQSKDLSDPNFAAEVPDCEMQDSDAVPVGIPPPASLAANLAGPPCAPEGPMAAQQASPPPEERIEDVDPKILQQAAEEGRAHQPQSPARPIPAPPAPAQLVQKAHELMWYVLVKDQKRMVLWFPDMVKEVMGSYKKWCRSILRRTSVILARVFGLHLRLTNLHTMEFALVKALSPEELDRVALNNRMPMTGLLLMILSLIYVKGRGAREGAVWNVLRILGLRPWKKHSTFGDVRKIITEEFVQQNYLKYQRVPHIEPPEYEFFWGSRANREITKMQIMEFLARVFKKDPQAWPSRYREALEQARALREANLAAQAPRSSVSED
- effect on the apoptotic effects of Karet (PC12 cells [2]): attenuated somewhat the apoptotic effects of Karet

B3: p35: a baculovirus caspase-8 and caspase-10 inhibitor (protein, UniProt P08160 1-299, looked up)
Early 35 kDa protein: MCVIFPVEIDVSQTIIRDCQVDKQTRELVYINKIMNTQLTKPVLMMFNISGPIRSVTRKNNNLRDRIKSKVDEQFDQLERDYSDQMDGFHDSIKYFKDEHYSVSCQNGSVLKSKFAKILKSHDYTDKKSIEAYEKYCLPKLVDERNDYYVAVCVLKPGFENGSNQVLSFEYNPIGNKVIVPFAHEINDTGLYEYDVVAYVDSVQFDGEQFEEFVQSLILPSSFKNSEKVLYYNEASKNKSMIYKALEFTTESSWGKSEKYNWKIFCNGFIYDKKSKVLYVKLHNVTSALNKNVILNTIK
- effect on cell death induction by Karet (PC12 cells [1]): did not affect cell death induction

B4: Karet(1-228): N-terminal, PTB-domain-containing truncation mutant of mouse Karet, amino acid residues 1-228 (SEQ ID NO: 7) (protein, listed as Mus musculus)
chain: MEEEGKKGKKPGIVSPFKRVFLKGEKSRDKKAHEKVTERRPLHTVVLALPERVEPDRLLSDYIEKEVKYLGQLTSIPGYLNPSSRTEILHFIDKAKRSHQLPGHLTQEHDAVLSLSAYNVKLAWRDGEDIILRVPIHDIAAVSYVRDDAAHLVVLKTAQDPGISPSQSLCAESSRGLSAGSLSESAVGPVEACCLVIMATESKVAAEELCSLLSQVFQIVYTESTIDF
modifications: HA tag; N-terminal PTB-domain-containing, truncation mutant of the mouse Karet
- co-immunoprecipitation / interaction with TrkA (TrkA): interacts with TrkA
- co-immunoprecipitation / interaction with TrkA (TrkA; listed as PTB domain alone): co-immunoprecipitated
- precipitation by immobilized TrkA peptide (SEQ ID NO: 10) [3]: precipitated by the TrkA peptide
